We go through six sequences from the DeepSol protein solubility set.

The data set can be described thus: soluble on expression in E. coli; label from the status in PepcDB or PDB records.
As for “MNPVEPADLVDIREQLHSGCHIVQAKGFSFLANRIINKELDAKDEKKYRKLLFDCFVVEEDILFRFLIDTLPILLIRGSNSPETLWEEFTLRAPRIRRIQRAFGMMISHCKPSFSKFLDVAARIDSEILTKICISSEFGYNFYQYIAVLSFTGLLSDSQKRLVGNCGLAQNVFLKHQPDLYPTGHESEHDPESFLRECSAEDLLSHPLHNIDPFQRHKLMRDRPAVLESKNLPNHILYLPYAVMLSQYKQVIVKLVEQSKMADHKLASENRVSGCRDTYSFAAPDFSDQDLTFETFMYHTIATGKVTSFIKYVENYHESLGILQKAHLLPALTVFLTHSSTNPSLQERICKLIALFVKKAPENADQFVLYFITLYQKPFFPIHRHLLLETIKDLFVNRFVISSAFGFLKITACLEGDRVRSLECLAEIIPKFTQLFEPMTSLCALKRDDGSDESFYAELHLLKECCKVTEDNEKALSKISNSLKECTGPRLAAIVDAVTDLIKCGVLDTIGARSMLTKRARQRGCEQSLGTYCRLLSTSTIPEENEEQARILRMSCIEELANLKQNDNHTVASEAWRSLGAFELDELEKGLKINPAQFATLFVKLRKEVQNGFIDFLSLCLHKEVESYQRPLYNTSAQDVNVSPLLTKVDTFKDKLIIENKNEPWFWSASLSLSASILQLTGPTNRAQASVRLLQSCLENVVPASSHDEMIRLMAGWRICIREVLHVLTESKSNDILWARDQIINTGRTSLTNKAESVDNIMMMLTALADAIDQQLRNIENDEQVEEVSKAQNPWLLSVYEFVATRLPKNLKEKRVAKNEPIYQLITHSNKSSLLTAIFCLRLLYLNPSVAAFYNDEDVGLTDDRMLVSLLQDSTKELKKEEIPDRKMMWVTAEAYGASQMSAKAFEVAYNIVIDEKTEKYEETELVDDESIEKFFNGLISSPKKDLKEIEQNNKKVLEKLWNNGNNEVRRKIYEGLAELALISGTGRSKMVIPAGKLPEGILKGILQLFDKKINVKPETLRNIIRCLVNHRRNDGRFLPPIDWMKFLERSEWTKADTDARLAMITLACEQNISEVIFHFSSSLTVKELLVLSENLRSVSKLFPRKEFTMILVQMAVQARKEDVETSKKLSMALSDLQKDSTVHNFLMKCLPKLFDISGITDPILNSIKDPDAFGGQISNCFDVWLEARRGEKMNIRRICDIFGKEESNSKKNAICALISHESRTLSRKMRFEKLLDVITASRIARTFGGSMQSFFSIFLSIIVSNNDTVEIPLCWFENQEHVPAMMIAAKQPFYKWIVEAPEMKSNAHHFGSFLSYYVDGPEKQYYEYWHTEGATDLLAMIVSAYPNETFPNLLTQTDEFWKSLLGIADVGK”, the “soluble on expression in E. coli” value is listed as “not soluble”.

With “GSFLLPKLTSKKEVDQAIKSTAEKVLVLRFGRDEDPVCLQLDDILSKTSSDLSKMAAIYLVDVDQTAVYTQYFDISYIPSTVFFFNGQHMKVDYGSPDHTKFVGSFKTKQDFIDLIEVIYRGAMRGKLIVQSPIDPKNIPKYDLLYQDI”, the “soluble on expression in E. coli” value is recorded as “soluble”.

On to “MSTSCFPDVPLELTTRHPRPLQACPERHSQSTHDSLGIWVKRREEKPMERMSKDYDIVQIPRDVGYSDLPRKMEVGKPFEINGSVYVCEKRGGEIMKICSEDSGRTGVPVLNKGFYVVRRM”, for which the “soluble on expression in E. coli” value is “not soluble”.

With “MSLAFKPARVIFEQDALKYPMGEKLYRFFRDKGTDVSFAASHNRVSAIPGRTRSEKYFEAKRTLVVGVRRTTAFETCKPSAHFQLPLATSCPGKCEYCYLLTNMGKKPYVRIYVNIEEILSAARGYIEDRKPQVTVFEGAATSDPVPVEPYTGALARAVEFFGGQEYGRFRFVTKFTEVDTLLDVPHNGHTRFRFSINTPEVIRRFEHATPPLAERLAAAWKVAAAGYPLGFLVAPIIMYDGWRDSYRDLFKTAAAGLNGKVYDLTFEFITHRFTKRAKGTILEVFPSTRLDMDEEARAFKFGQFGYGKYVYPKELFSDAKIYFEGLAGEYFPGSKVEYFVEGHHHHHH”, the “soluble on expression in E. coli” value is “not soluble”.

Consider “MPCDFPGCGRIFSNRQYLNHHKKYQHIHQKSFSCPEPACGKSFNFKKHLKEHMKLHSDTRDYICEF”, for which the “soluble on expression in E. coli” value is recorded as “soluble”.

As to “MPAIEVIRSAKRTKTVQARIVDGQIQVRIPARMSKAEEEKAVGEIVAKLKRRTQSAVSSDADLIERAHKLNKTVLEGRARVESIRWVSNQKGRWGSCTVATAEIRISDRLKHVPDYVLDAVLVHELTHTFIAGHSAEFWEWADKTPLAERAKGYLEAYQRWGLEHHHHHH”, the “soluble on expression in E. coli” value is “soluble”.
